According to patent US12077763B2, “RNA-based control of powdery mildew” (Greenlight Biosciences, Inc., priority 2021, dated 2024):

Tested on: E. necator
Experiment: Leaf disc assay, dry inoculum (settling tower), decrease in disease severity / hyphal growth (Example 2)
Conditions: decrease in disease severity (hyphal growth) relative to untreated control, value ± SE; for % decrease =/− SE TP1: time point 1 (untreated control hyphal growth ≥50%); for % decrease =/− SE TP2: time point 2

| Molecule | % decrease =/− SE TP1 [%] | % decrease =/− SE TP2 [%] |
| --- | --- | --- |
| GS1823: dsRNA trigger SEQ ID NO 158; gene target Guanine nucleotide-binding protein subunit beta-like protein (nucleic acid) DNA: TAGCCAGTATCTGTTAGGCGAAAAAACAAGCGCATGGATCAAATCACCAGCATTGAGAGAATATAAATGCTTAGACTCATTTAGATCCCACAACATAGTAGTCCCATCTTTCCCACCTGATGCGCAGAGAGAACCGTCCGGCGAGATGGTGACAGTATTTATGTAACCATTGTGGCCAATATGGTCAGTCTGTAGTTTACAAGAGGATAATTCCCAGACCTTCACAAGTTTGTCCCAGCTACTGCTGACAATGACTGGATTTTGTGGATTTGGGCTGAATCGTACACAAGATACCCAATCATTATGACCTTTTTCAGTAATGGTGAACTTGCAATCACCTAGAGTATTCCAGAGCTTAATTGTTCGATCACGAGAGCCCGAGACAATTTGCCTGTTGTCAGCGGAAAAAGAAACAGAAAGAACATCATTTGTGTGGCCGACAAATCTCCTTGTTGTGGTTCCTGTTGCAAGCTCCCAGAGTCGGAGAGTTTTATCCCAAGAAGCAGATAGAGCATAAGCACCATCAGAAGAAATTACACAGTCGGAAACTATATGAGAGTGGCCATGAAGTGATCGCTTTGGGTAACCGTAGGAA | 31 ± 8 | 26 ± 8 |
| GS1826: dsRNA trigger SEQ ID NO 180; gene target Adenosylhomocysteinase (nucleic acid) DNA: CGCGAGTAAGATTATATGACGACCATTCTTCATTAGAAAACGATCGACTTGGGGCTTAATATTTTGAACGCTTTGTGCATTAGCTTTAAGCCATGCGACATCTATTTCAATGTCAAAGTGTCCAATATTGCAAACAATAGCATCGTTAGGCATAACTTCAAAATGTTTTCCTACTAAAATGTCACGGCATCCTGTAGTAGTTACGAAGATCTGAGCTTGACTTGCGGCCTTTTCCATTGTGGTGACTTGGAAGCCAGAAACTGCAGCTTGTAAAGCATTTATAGGGTCAACCTCAGTAATTAGTACACGTGCACCCATACCCTGAAGAGCTAATGCACACCCTTTTCCAACATCACCAAAACCAGCAACAACGGCAATTTTTCCAGCAATCATAACATCGGTGGCTCGTTTAATACCATCGATCAAAGACTCGCGGCAGCCATAGAGATTGTCAAACTTAGACTTTGTGACAGAATCATTGACGTTAACCGCAGGCACGAGCAAAGTATTGTTTTTTAACATTTTATATAAATGGTGAACTCCAGTAGTGGTTTCCTCAGATACACCAAAGCAACCTTTTAACATTTCTGGATA | 19 ± 6 | 6 ± 5 |
| GS1824: dsRNA trigger SEQ ID NO 200; gene target WD repeat domain-containing protein 83 (nucleic acid) DNA: CTTGCCATCTCTTCCAACCTTTCTCTTACCATCAAACTTTGTTCCTTTTACTGTGATCCTCTCGACAAGTTTTCCGCTCAATGTATCCCAGACAACCACTTCACCATCTTGTCCTTCAATATTCTCGTTTCCAGAAAGTATCCATCTCTCTCTTCCACCAAAACAGTTCCATATTCGAAATTCTTTGTTTTCCCAGCAATCTGCACGATAACTCCTTAGTAATTTACCATTCTCGGTATCCATTAGTCTAAGCTGACTATCCAGTCCACCTACAAGTAGACCTTTTTTATCTATTGTCTTCCTTAGACATGTCACAGGAGCACCAATAACATCGACAACAATTTGTCCCATTCTAATGTCGTATTTCCTAACTTTTCCATCGACACTACTGGTCCATATCTCGCTATCACTCGCTAATACGCAGCTCACACTATCACCAGCCTCTGTTAGAACCATAACTGGCTTAGCACTCGAGCTCTTCACATCCCAGATACGAGCACTGGCATCAAAACCTCCACTAATAAGAAGACTGGCTCCATCCCCAGCAAAAGTAACGGTATTGATGCGTGCCGAATGACCATTGTTGCCACTAAAT | 26 ± 7 | 19.5 ± 8 |
| GS1819: dsRNA trigger SEQ ID NO 209; gene target Putative ATP-dependent RNA helicase PB1A10.06c (nucleic acid) DNA: CTGGTGCCCTTAACTTGATGGTAAGATTATTCGGCAGAGTTTTTACCATTTGAATATTTGGTATTGATTTATATCCTTGAGCCTCATTTATTTGCTGGATAGCCCAAGCCTTAAACGCAGATCTTTCTTTTCTAGGCGTATTCTCAATTTCATCGCAATCATCAGAACTTTCATTCTCATCACGGCTACTTTCTTTACTGCTATCTGACTCGTAATCAGATAAATTTGGTCCAATTTTATCTCCAACGTCTTCTGAGGAATTTGTCATGTTTCCTATGGTATCACGCTGGATTGACATACTTGAATCTGAGTTTATACCTTCCCATTCTGATTCATCATCGGTGACAGGCTTGCGAATATCAAGAGAAAATTTAGATACAATGCCGCCTCGTCGTTTTCTTTTCCCCAGAATAGGAATTCCCTCCTTACTTATTTCGAGTGGCTTTTTTTAATCCAGCTCCCACAGTTATATCTGTTTGCTTCTGAGTAGTAAGTACTGAAGCTTTAGAGGTCTCATCGATATTATCGTCACATGGAGATATTCTCAGATCATCATTGGTTACAGTACTCTCATCGGAATTGAATTGATTTTCGTT | 12 ± 6 | 8 ± 9 |
| GS1821: dsRNA trigger SEQ ID NO 131; gene target ABC transporter ATP-binding protein ARB1 (nucleic acid) DNA: AACACCATTAGGCCCTACCAAAGCTGTTCGAGAGTCCATATCAACACCTAGATCCAAATGTCTGTATAAATCATCTTTAGGATCACCAGAGTATGAAAAAGTAACATCGTCAAATGATAACACTGGTGGAGGAAGTTTTTCCACGTCTGCAAATCTGAAAGTAAAGATACGGTCAGGCTCAACTTTTTGAATGAAGCCATCTGCTTCCATCTTGTCTAGTATTTTTTGTCGTGATTTAGCCTGTCTGACTAAGTTGGCATAAGTACCAGCAGATGCAATAAATTTTTTGATATGAGCGATTTCGTCTTGTTGCTTGTGATAAGCTTTCATTTGGTTGACTTCTAACTCAGAGCGGGTCTTTTGGTATGTATCATAATTTCCACCATAATATGTAAGTTGTTTTTGCCGCATATCAATCATATTGGTGCAGACTCCATTTAGAAAGTCCATTGAATGAGACACTAATACAAGACTTCGATCCCACTTCTTAAGATATTCTTCAAGCCACACACAAGCTTCCAAGTCTAAGTGCGCAGTCGGATCATCAAGTAGAAGTAAAGATGGCTTAACAAAAAGGGCTTTTGCTAAAGCTACA | 29 ± 5 | 19 ± 6 |
| GS1820: dsRNA trigger SEQ ID NO 164; gene target Mitochondrial carrier protein LEU5 (nucleic acid) DNA: TTTTTTACAGCCTCTTTGGGAAATCTTATGGATTGAGGCGAAGGCGGAACTTCATTATATATGATTTTGCAAATGTGTGAAAAGCTTGAGCTCGCACCTTTCTTTGTTTCAAAAGCTAGCCGAACCCTTATGACTTCTAAGGGATATGTGAAGAAAACACTAGCGACGCCTGCTAAACTGCCACTTAACAATCTTCGTAATGATGTTTCTTGCGTAGGTGATGATATAAGAAATGATCGTATTTGCTCGTAGGTTAAAAACTTGATCGCAGCATAAGGAAATATCCGAATTATAGTGGCAGAATGGCCACGAAATAGACCACTAATTCCATCAGTAGCTTTGATTTGCCGTATAGCAGTCACAACGCCGAGCCAGCTCCCAGCGTATCTGGAAAATTGTGGATTAGAAGATTGGAATAATATCTTCACACGATCTAAAGGTGCCACTATAGTTTTTGCCGCACTCCCTGCTAGTCCTCCAGCTAATCCTGACCGCCATATGAATCCCAAAGATTGCTTTTCATGAGTTTGGGATTTTGATGAATCTTTTTTATTTTTCGTAGAAGGGTATACTGCAATATTACTTTCATATAAAT | 23 ± 4 | 10 ± 6 |
| GS1822: dsRNA trigger SEQ ID NO 206; gene target Putative phospholipid-transporting ATPase C6C3.06c (nucleic acid) DNA: TCTCTTCGCGACCGATATCCATTTCCTGAGGGTAACAGAGAATGATCTTCAGCACTGTCTGGGTTGTATCTGCCAGTTCCCTCAACATCTGGGTCGTCCCTCAATAAGCTATGTAAGTCCTCTTCAGCGTAGTCTAAATTCCTTGGGGCCCCATTTCTTCTTCCTAACCCTCTGAATCCGCTCATGCGTAGATTTCTCAACGGAATATTGCTTTCAGTTCTCCAGTCATGCGCTTTCGGTTTGATCCCTTGTTCAAGCTCCTGGATATCTAAATCCAGATCGGAGTCCGAATCAGCTTGAGGTGGAATTTGATCGCCCTGATGATAATATGAGCCCGAAGACATGCCTCATTGTATTTTATCGTTTGATCTCTATAATCTCCTAGGTGATGTTATAAAGCTTGACCGCATAAAATCGGTTAATCATTTAAGCAAATGCAGTTGCGGTGTGTCATATCTTTCACGGCAGCATCTAGTATGTCTAGTATGGCTGCTACTGTATTTTAAATAAACCAAAACATGTTCAACACATTTCATAAGGTATAAGAAGGATTGTGAATATAATTTACTGGTAAATTTTAAATCATAGTTGAAAA | 23 ± 5 | 16 ± 4 |
| GS1825: dsRNA trigger SEQ ID NO 141; gene target Serine/threonine-protein kinase cek1 (nucleic acid) DNA: CGACCGATTAATCCCATTCTAGACAAGCCAAAATCTGTCAATTTAAGATGGCCTTTCTGATCAATTAAGAGATTGTCAGGTTTAAGATCTCGATGAACTATCCCTCGACTATGAAGATGTTTGACCCCTAGGATAACCTCACCTAAGTATTTTCTTGCCCAATCCTCTTGAAGACCGCCTAAAGCCTTTATAAGTGACGCACAGTCGCCTCCATTCAAATATTCCATAACCAAGTAGAGATAGTCTTTACTTGAGAATGTCCAGTATAATTTAGCTACAAAGTCACTCTCACCTTGCCACATCATGATTGCACGTTCAGCTTTAACGTTAGTTACCTGATTTTTGGCTACCATATCGGCTTTTTTAAGTACTTTGATTGCATAGTAGTCACCTGTAGATTTTTTCTTGGCAAGATAAACACTTCCGAATGCACCTTTACTGATAGGTTTTATTATTTCAAAGTCTTTTATGGAGGGTGGAACAATACGGGCTTGGGGAACACCGACAGTTGATAAACGAGGTGATGGAGGTAGTCGAGATGGGTCAGAGCCTGCAGCAGAAGATTGACGTCTATGGTGATGAGGTAGAAGAGCA | 28 ± 5 | 18 ± 6 |
